Experiments:
[1] = substrate: O=C(O)C[C@@H](O)C(=O)O; assay: steady-state oxygen consumption, Clark-type electrode; type: biochemical, Pseudomonas aeruginosa; conditions: E-Zn2+, PMS as co-substrate, 25 mM NaPO4, pH 7.4, 25 °C
Text: (§1) steady-state oxygen consumption, Clark-type electrode on PaD2HGDH (E-Zn^2+ and E-Co^2+)

[2] = substrate: O=C(O)CC[C@@H](O)C(=O)O; assay: as above; type: biochemical, Pseudomonas aeruginosa; conditions: E-Zn2+, PMS as co-substrate, 25 mM NaPO4, pH 7.4, 25 °C
Text: as §1

B1: PaD2HGDH (E-Zn^2+ and E-Co^2+) (Pseudomonas aeruginosa PAO1) (protein)
chain: MTREALIESLKPLVEPGKLLDDAASLDAYGKDWTKHFAPAPLAIVFPKSVEQVQAIVRWANQHKVGLVPSGGRTGLSAAAVAANGEVVVAFDYMNRILDFNAFDRTVVCQPGVVTKQLQTFAEENGLYYPVDFASSGSSQIGGNIGTNAGGIKVIRYGMTRNWVAGMKVVTGKGDLLELNKDLIKNATGYDMRQLFIGAEGTLGFVVEATMRLERTPKNLTAMVLGTPDFDSIMPVLHAFQSKLDLTAFEFFSDKALAKVLARGDVPRAFETDCPFYALLEFEATTEEVANEALATFEHCVEQGWVLDGVMSQSEQQLQNLWKLREYISETISHWTPYKNDISVTVSRVPAFLKDIDAIVEANYPDFEVVWFGHIGDGNLHLNILKPENLGKDEFFAKCATVNKWVFETVEKYNGSISAEHGVGMTKRDYLTYTRSETEIAYMKALKAVFDPNGIMNPGKIFAE
notes: FAD enzyme
Km [1]: 6.0 ± 0.6 mM | kcat [1]: 52 ± 2 s⁻¹ | kcat/Km [1]: 9000 ± 900 M⁻¹ s⁻¹ | Km [2]: 0.08 ± 0.01 mM | kcat [2]: 26 ± 1 s⁻¹ | kcat/Km [2]: 330000 ± 43000 M⁻¹ s⁻¹
